Assay results: patent publication US20210196823A1, “Methods of Treating Metabolic Disease” (Pfizer Inc., priority 2018, published 2021)
“Also recorded” adds a separate entry of the source.

Tests used:
Huh7 cells [1] = assay: qRT-PCR of BMP/SMAD target genes in Huh7 cells treated with ERFE; assay type: cell-based; conditions: Huh7, mouse ERFE 10 μg/ml vs vehicle
Experimental: (§1) (b) Gene expression microarray: Microarray analysis of Huh7 cells treated with mouse or human erythroferrone was carried out to test the activity of erythroferrone on the BMP/SMAD signalling pathway. Generally cell treatments were carried out according to the following protocol: Huh7 and HepG2 were cultured in Dulbecco's Modified Eagle's Medium—High Glucose (Sigma), supplemented with 10% Fetal Bovine Serum (Sigma), 1% Penicillin-Streptomycin (Sigma) and 1% L-Glutamine (Sigma), unless otherwise indicated. Cells were plated 24 h before treatments in 24-well (gene expression analysis) or 12-well (protein analysis) cell culture plates. At the time of treatment, cells were washed with PBS and fresh media was added.
(§2) (c) RNA isolation, cDNA synthesis and qRT-PCR: Suppression of several BMP-target genes: HAMP, ID1, ID3, SMAD6 and SMAD7 was further confirmed by qRT-PCR. Cells were lysed and RNA was isolated using the RNeasy Plus kit (Qiagen), followed by RNA quantification and quality assessment using Nanodrop (Thermo Fisher). cDNA was synthesized using the High Capacity RNA-to-cDNA kit (Applied Biosystems). Gene expression was assessed using quantitative real-time PCR with Taqman Gene Expression Master Mix and inventoried Taqman Gene expression assays (Applied Biosystems) specific for the genes of interest according to the manufacturer's instructions.

[2] = test system: SMAD1/5/8 phosphorylation in Huh7 cells; assay: Western blot of SMAD1/5/8 phosphorylation in Huh7 cells; assay type: cell-based
Experimental: (d) ERFE effects on BMP/SMAD signalling measured by SMAD 1/5/8 phosphorylation: To confirm the suppression of BMP/SMAD signalling, we analysed phosphorylation of SMAD1/5/8, required to transduce the signal leading to HAMP upregulation. Analysis was carried out by Western blot according to the following methodology: Cells were lysed at 4° C. using RIPA buffer (Thermo Scientific) containing protease/phosphatase inhibitor (Cell Signalling). Lysates were denatured at 95° C. and separated on a 10% SDS polyacrylamide gel (Bio-Rad), following the manufacturer's instruction. Protein sizes were estimated by using the Novex Sharp Pre-Stained Protein Ladder (life technologies). Protein was transferred to a nitrocellulose membrane, then blocked with milk/TBS for 1 h. Antibodies used were anti-P-SMAD 1/5 (S463s/465)/9(S465/467) (Cell signalling 13820S 1:500), anti-Smad1 (Cell Signalling 6944S 1:500), anti-β-actin-peroxidase (Sigma A3854 1:10 000), and Anti-rabbit IgG HRP conjugated (RnD systems HAP008 1:5000). […] In this case Huh7 cells were treated with mouse ERFE (10 μg/ml) or BMP6 and LDN, a small molecule inhibitor of BMPs, (100 nM), alone or in combination, for 30 min and pSMAD/SMAD ratios values were calculated by densitometry. Erythroferrone caused a decrease in SMAD phosphorylation relative to non-treated cells (FIG. 3D).

Huh7 cells [3] = assay: HAMP and ID1 qRT-PCR in Huh7 cells treated with BMPs with or without mouse ERFE; assay type: cell-based; conditions: 2 nM BMP 2/6, BMP5, BMP6 or BMP7 + 10 μg/ml mouse ERFE, 6 h, serum-free media
Experimental: as §1
as §2, with “instructions. […]” for “instructions.”

HepG2 cells = assay: HAMP and ID1 qRT-PCR in HepG2 cells treated with BMPs with or without mouse ERFE; assay type: cell-based; conditions: 2 nM BMP 2/6, BMP6 or BMP7 + 10 μg/ml mouse ERFE, 6 h, serum-free media
Experimental: as §1
as §2, with “instructions. […]” for “instructions.”

[4] = test system: BMP-target genes in the liver; assay: Short-term ERFE treatment in WT mice: liver BMP-target genes, serum and liver iron; assay type: in vivo; conditions: 200 μg i.v., 3 h
Description: (a) Animal studies: Wild-type male C57BL/6 mice were purchased from Harlan Laboratories, UK. Embryos from Fam132b+/− mice on a mixed Sv129/C57BL/6 background were obtained from the Mutant Mouse Regional Resource Center (MMRRC) at UC Davis (strain 66; 12955-Fam132btm1Lex/Mmucd, ID MMRRC:032289-UCD) and backcrossed onto C57BL/6 background using marker-assisted accelerated backcrossing. Heterozygote pairs were mated to generate homozygous animals from which knockout and wild-type colonies were maintained. Animals were housed in individually ventilated cages in the Department of Biomedical Services, University of Oxford, and provided access to normal chow (163 ppm of iron, Special Diets Services 801700) and water ad libitum. All experiments were performed in 9-13 weeks old male mice. For EPO treatments, mice were injected intraperitoneally with 200 IU recombinant human EPO (Bio-Rad) in water or vehicle (water) daily for three consecutive days and culled 24 h after the last EPO injection. For ERFE treatments, mice were injected intravenously with 200 μg of recombinant mouse ERFE or vehicle (saline) and culled 3 h after treatment. Mice were euthanized in increasing CO2 concentrations.
(b) Serum iron analysis: Blood was taken by cardiac puncture immediately after euthanising mice and collected in BD EDTA or SST (serum) Microtainer tubes. Serum was prepared by centrifugation of clotted blood at 8000×g for 3 minutes in BD Microtainer SST tubes (Beckton Dickinson) and used for serum iron quantification using a Abbott Architect c16000 automated analyzer (Abbott Laboratories).
(c) Tissue non-heme iron measurement: Liver tissues were dried for 4 hours at 100° C., weighed and digested in 10% tricholoroacetic acid (Sigma)/30% hydrochloric acid (Sigma) for 20 hours at 65° C. A standard curve was generated using a dilution series of ferric ammonium citrate (Sigma) in the 10% (w/v) trichloroacetic acid/30% hydrochloric acid mixture. Non-heme iron content was determined colorimetrically by measuring absorbance at 535 nm following reaction with chromogen reagent containing 0.1% (w/v) bathophenoldisulphonic acid (Sigma)/0.8% thioglycolic acid (Sigma).
Three hours after the injections, mice were culled and serum and liver iron measured. […] Additionally, three hours after the injections, mice were culled and the liver harvested for analysis of liver gene expression for BMP-target genes.

B1: mouse ERFE: recombinant mouse erythroferrone (SEQ ID NO: 2); monoFC-muErfe is a monomeric FC murine ERFE fusion (protein, listed as Mus musculus)
chain: MASRRPVGARTLLACASLLAAMGLGVPESAEPVGTHARPQPPGAELPAPPANSPPEPIAHAHSVDPRDAWMLFVKQSDKGINSKRRSKARRLKLGLPGPPGPPGPQGPPGPFIPSEVLLKEFQLLLKGAVRQRESHLEHCTRDLPASGSPSRVPAAQELDSQDPGALLALLAATLAQGPRAPRVEAAFHCRLRRDVQVDRRALHELGIYYLPEVEGAFHRGPGLNLTSGQYTAPVAGFYALAATLHVALTEQPRKGPTRPRDRLRLLICIQSLCQHNASLETVMGLENSSELFISVNGVLYLQAGHYSVFLDNASGSSLTVRSGSHFSAILLGL
Huh7 cells [1]
  expression of BMP-target genes HAMP, ID1, ID3, SMAD6 and SMAD7: Suppression
  expression of FGA (JAK/STAT3 target gene): no changes
[2]; Huh7, mouse ERFE 10 μg/ml with BMP6, 30 min
  SMAD phosphorylation after BMP6 stimulation: blunted the increase
[2]; Huh7, mouse ERFE 10 μg/ml, 30 min, baseline
  SMAD 1/5/8 phosphorylation relative to non-treated cells: decrease
Huh7 cells [3]
  HAMP and ID1 expression / BMP/SMAD signalling in BMP-treated Huh7 cells: suppresses; also recorded: suppression
HepG2 cells
  HAMP and ID1 expression / BMP/SMAD signalling in BMP-treated HepG2 cells: suppresses
[4]
  liver iron: not affected
  serum iron: not affected
[4]; in comparison to the control
  serum hepcidin levels: reduced
[4]; vs inactive control Clip huERFE
  liver expression of Hamp and BMP-target genes: significantly reduced
